From the supplement of paper PMC9170038

System: K4 kissing-loop RNA reporter
Test: apparent KD of K4 kissing-loop reporter; higher = weaker reporter binding
Settings: Eterna round: R107
Experimental: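 RNA-MaP round R107: designed RNA switches with theophylline, tryptophan, arginine or FMN aptamers are transcribed on-chip within common flanks. They are titrated with a labelled K4 kissing-loop RNA reporter in RNA-MaP buffer (100 mM Tris pH 7.5, 80 mM KCl, 4 mM MgCl2), without ligand or with the indicated ligand. Median apparent KD per design.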

[1] = input ligand: theophylline 20 uM
[2] = input ligand: tryptophan 2.4 mM
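Further: bound reporter read as fluorescence of individual clusters on recovered sequencing chips by microscopy, with normalized cluster intensities fitted with a binding model.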

Row | Sequence | apparent KD of K4 kissing-loop reporter (input ligand: FMN 200 uM) [nM] | apparent KD of K4 kissing-loop reporter (input ligand: arginine 13.2 mM) [nM] | apparent KD of K4 kissing-loop reporter (input ligand: none) [nM] | apparent KD of K4 kissing-loop reporter [1] [nM] | apparent KD of K4 kissing-loop reporter [2] [nM]
1 | AUCGUUGUCUGAGGAUAUCGGUUAUCUGUAGUGAUGUUACAGUAUAUUGAUAUUAAAGUUUCUAUUCGAGAAGGCAGACUACGUA [JR_Nu_ExcFMNB_Sub022] | 71.4 | 65.4 | 72.1 | 58.9 | 71.9
2 | AAAAUAAAGCAGUGAUGUUGCUUAUGAGAAGGAGCGCACGAAAGUGCAGGUAGGUCGCUCAGCCAAGUGGACGAAAACGUCCACA [#OpenEnded 10 #K4Early] | 112 | 122 | 123 | 144 | 90.4
3 | UCUCCAGUGAUGUUGGAGACGGAUGAGGAAGGAGCGGGCACGUGCCCAGGUAGGUCGCCUCGAAAGCCCUGUAGCAUCGCGAAAC [Disoribe] | 281 | 188 | 203 | 193 | 149
4 | UGAUCUCGGCAGUGAUGUUGCAUAUGAGAAGGAGCGCACGAAAGUGCAGGUAGGUCGCUCAGCCACGACGAAAGUCGCGAGAUCU [#SwitchBubble 3 #K4Early] | 137 | 259 | 155 | 238 | 129
5 | AGGUCUGCACGAAGGAGCGCCCUGACAGGUUGCUGCCGUGGGCAGUGAUGUUGCUCAGUCCGGCAGGUAGGUCGCGUGCAGACCU | 136 | 109 | 123 | 97.5 | 161
6 | UGAUACCAGACGGCCGCCACUCCCGCAGGUCAAAGACCUGCGAAGAAGGUUCUUCAGUGAUGUUGGAGGACCGGGUCUGGUAUCU [FiskerMod 22 - Jieux - Exclusion - Tryptophan B] | 217 | 168 | 207 | 213 | 369
7 | GUGCGGCUAGUGAUGUUGGUUGCGUGGGAAGGAGCGCAGAAACAUGCAGGUAGGUCGCCCACAUCUCUGAUAAAAGAUUAAUUCA [Riares] | 304 | 254 | 235 | 338 | 239
8 | ACCACCAGCCGCACGAUACACGGGCAUUACCGAGGACCGGUACGGCCGCCACUCGCCCGCACGCUGGAUCGAGUGAUGUUCGAUC [theeternabot_sameState_KL_Trp_A_15] | 358 | 334 | 384 | 371 | 326
9 | AUGCGACGUGCGGCCGCCACUCGGAUGCGAGUGAUGUUCGCGGGACGGACGCAAGUCCGUCAUUCGAGGACCGGGCAUCGGUGUA [#2 Same State - Tryptophan B Attempt #2 (HarryS)] | 555 | 462 | 636 | 512 | 139
10 | UGGAGUUGACGAAAAGUCAACUCCUGAGAUACCAGUGACGAAAGUCACCCUUGGCAGCUCACUGCCAGUGAUGUUGGAAAAUAAA [#OpenEnded 1] | 527 | 295 | 238 | 204 | 387
11 | UACAUCGAGCAGAGUGAUGUUUUGUGCGAUACCAGCAAGUGCAAGUGCCCUUGGCAGCGCAAGCGGUUGUAUGUAGGACCGGACG [theeternabot_exclusion_KL_Theo_A_21] | 433 | 647 | 657 | 964 | 432
12 | GUCCCAGUGAUGUUGGUAGGCGAGCGGGAUACCAGCGAAGACUCACGCCCUUGGCAGCCCACAUAUCCCGCGUAGGGAUUAGCUC [Same State - Theophylline A (Freestyle 21)] | 364 | 315 | 431 | 415 | 347
13 | AGCUGUGGCAGAAGGAGCGGCAGUUAUUCUGAUAGUACUCUGAGUGAUGUUCAGAACGACUGUCAGGUAGGUCGCUGUCACAGCU [#02 K4 Arginine B Exclusion] | 252 | 252 | 234 | 206 | 218
14 | AGAUGGAAUAGAAGGAGCGGCGCCAGUGAUGUUGGAUGCCGCGGGUGAAUCAUGUCAUAGUGCCAGGUAGGUCGCUAUUUCAGCU [Beinveve] | 104 | 98.1 | 96.6 | 103 | 90.8
15 | AUGCUUUUAAUAACACUAUAUACAGCUGAAGGAGCGACAAUAAAGUCAGGUAGGUCGCAGAAUAGAUGAGUGAUGUUCAUUUUUA [#05 K4 Arginine A Exclusion] | 92.8 | 178 | 118 | 166 | 76.9
16 | GGAUAGGAUAGAGGAUAUGGGCUAGGCAAGAAUAACUUGUCUAGCAAAUCCAUGAGGAGUGAUGUUCCAGAAGGCUAUCCUAUCG [FmnBX 1 U9+A77] | 960 | 160 | 164 | 145 | 155
17 | UGUAUGUGAUUUGAUACCAGACCAGCUGGUGGAUCACGAGUGAUGUUCGUGUUGGUUUGGGUCCCUUGGCAGCAAAUCGCAUACU [KL-SSTheoB13] | 218 | 151 | 180 | 131 | 166
18 | UGACAUUGCUCAGAUACCAGACACGAGGAUCACCCGUGUGCCAAAACGUACUAAAUAAGUGUCCCUUGGCAGCUGAGCAAUGUCU [TheoBX 13] | 78.1 | 19.8 | 30.1 | 148 | 47.8
19 | AGCCGAAAGGCGAGUGCUGUCACUCCGGAAGGAGCGCAGGAAACUGCAGGUAGGUCGCCGGAGUGAUGUUCCGGUGCAGCACUCA [Omei KL Arginine A Exc B v6] | 614 | 317 | 1120 | 561 | 800
20 | GUAUACAUAGAUCACCUUGUAGUGAUGUUGCGAGGACCGGUACGGCCGCCACUCGAAGUACGAAAGUACAAAGAUCUAUGUAUAC [Exclusion Trypto A - 1] | 251 | 131 | 258 | 136 | 45.9
21 | GCCGUACGCAUGGAUACCAGUUGCGAAGUGAUGUUUCGGGCGAUCAAAGGAUCGCCAGACAACCCUUGGCAGCCAUGCGUACGGC | 757 | 506 | 1600 | 769 | 674
22 | UAUAUAGUGACGGCCGCCACUAUAUUAAUGUUUAGGUUAGAGUGAUGUUUUGAUUAAUAUUUUUAUAGGACCGGGUUAUAUGUUA [xerrmullin] | 563 | 314 | 511 | 739 | 428

Row | Sequence | apparent KD of K4 kissing-loop reporter (input ligand: FMN 200 uM) [nM] | apparent KD of K4 kissing-loop reporter (input ligand: arginine 13.2 mM) [nM] | apparent KD of K4 kissing-loop reporter (input ligand: none) [nM] | apparent KD of K4 kissing-loop reporter [1] [nM] | apparent KD of K4 kissing-loop reporter [2] [nM]
23 | AACAACUUGUUUGUCGGGUGUUCGCGCGAUACCAGCCGAAUGGAUGGCCCUUGGCAGCGCAGCGAGUGAUGUUCGCCCGCUUGAC [Exclusion Theophylline A GF 24] | 611 | 422 | 552 | 529 | 583
24 | GCCUAGCAGCGAAGGAGCGCCAGGAGAAGAAAUGGAGAGAGUUGAGUGAUGUUCAAAUGGUGGCAGGUAGGUCGCGCUGCUAGGC [#08 K4 Arginine B Same State] | 559 | 261 | 432 | 444 | 377
25 | AGAUAGGGCUGAAGGAGCGUCGGAGAAGAGAAGAAGGAAUCCAGUGAUGUUGGAUAGAUCCGACAGGUAGGUCGCAGUUUUAUGA [hbob_SS_Arginine_B_2t139] | 125 | 127 | 133 | 178 | 124
26 | CGUGUAAUGUGGAGAUUUGAAAAGGCGCAUCGAGGACCGGUACGGCCGCCACUCGCUACGAGCUAGUGAUGUUGGCUCGUUCGGA [theeternabot_sameState_KL_Trp_A_23] | 238 | 209 | 210 | 252 | 194
27 | GACCCAGAAGCACACCUAAAGUUGACAGAUACCAGCGUCGUUUGGCGCCCUUGGCAGCUGGUCAGUGAUGUUGAUAGCUUCGACU [theeternabot_sameState_KL_Theo_A_24] | 197 | 69.5 | 181 | 89.5 | 93.6
28 | CCUAUCUCAUACGAUACCAGUCCGAGUGAUGUUCGAACAUAAAUUAGUUUGCCAUAUAAUGACCCUUGGCAGCGUAUGGGAUAGG [Ex Theophylline B K4 12] | 576 | 448 | 550 | 623 | 522
29 | AGUCCACUCUAAAGAGUGGACCUAAGGGAUACCAGUGAUGUUGGUCACCCUUGGCAGCCCACUGUCAUCGAUAAAGAUGGCAGCA | 119 | 106 | 113 | 117 | 117
30 | GUAUGUGGAAACACGUACUUGUAUCCUAGGCAGGAUAUGCGGAAACGCAGAAGGGCCACCGGCGAGUUUAUCCAGUGAUGUUGGA [Ex FMN A 9] | 245 | 257 | 291 | 251 | 237
31 | AAAGUGUCAGCACGAGUGAUGUUCGUGGAUACCAGCCUCGAUAAAGGCCCUUGGCAGCCGAAAAGUCAAGGGCUGGCACAUAAAA [KL-XTheo-A11] | 216 | 205 | 251 | 341 | 226
32 | UGCACCAGUGAUGUUGGUCGGCACCGAGAUACCAGCUGAUCUCUUAGCCCUUGGCAGCUCUUUAUUCGCGUUAUCAGUUUCUUCG [theeternabot_sameState_KL_Theo_A_16] | 428 | 368 | 464 | 416 | 345
33 | UGACACUCAACGGCCGCCACUACCGUCGCCGAAUUCCGCAGUGAUGUUGCGAUCCUCCGAUUGUCUAGGACCGGGUUGUUUGGGC [theeternabot_exclusion_KL_Trp_B_43] | 181 | 209 | 223 | 216 | 162
34 | CUAUGAGUGAUGUUCGUAGGUUGGGCUUGGCAGGAUAUGGGAUCUUCCAGAAGGGCCGAUUCCGGCGAGUGAUGUUCGUUGGUCU [Exclusion FMN A GF30] | 41.7 | 42.1 | 50.1 | 43.2 | 43.9
35 | GGUUCCUCAGUGAUGUUGAGGUGACCUCGGCAGGAUAUAGGCAUUACUAGAAGGGCCAAAAGAAUCCUGUGCAGCAACACAGGGA [Usrasoza] | 152 | 238 | 298 | 257 | 262
36 | AGACUACCACACUGUCAAUAGACAGUGUACUAGGAUAUGCUGAUAAGCAGAAGGAGUGAUGUUCCUAGGUAGUCAAUAAAAUAAU [FmnAX 13 U28] | 439 | 443 | 494 | 629 | 574
37 | UGUUAUGUAUCAGGAUAUUAGUGUUGUUUGUUUAUGUUAGUGAUGUUGAUAUUUGUUUUAUGUAUUUAAGAAGGGAUUGAGAUGU [kkplmullin] | 369 | 339 | 310 | 359 | 258
38 | UGAUAGGACAGAAGGAGCGGGAGUGAUGUUCCCAAAGGAAGGUCUAGCAAAGCUGGACCCUCCCAGGUAGGUCGCUGUCCUAUCU [ArgBX 4 #SwitchBubble #StaticStem] | 129 | 123 | 124 | 155 | 118
39 | GCAACAUUGGCAGGAUAUCCUUCUCAGUGAUGUUGAGGGUUCAGCUAACGAAAGUUAGUUGUACCGGGAGAAGGGCUAAUGUUGC [Omei KL FMN B SS A v8] | 288 | 650 | 1100 | 913 | 1240
40 | GGACCUCAGUGAUGUUGAGGUAACACUGAUACCAGCGACUUAAUUCGCCCUUGGCAGCAGUCCACCGAGGUAUCUGAUUAGGUCU [#23 K4 Theophylline A Exclusion] | 211 | 220 | 216 | 287 | 190
41 | GGUUUAUAGGAGGAUACCAGUACGGAUAAAGUACAUUAAUAGUAGAGUGAUGUUCUAAAGUACCCUUGGCAGCUUAGAUUAAGUU [ExTheophylB.I] | 87.1 | 177 | 133 | 209 | 74
42 | GGUAGCAUGGCGGCCGCCACUUUUACUGGAUCGGAAACGAUCCAGUAUUGUGUAGUGAUGUUACAAAGGACCGGGCCAUGCUACC | 201 | 188 | 180 | 189 | 167
43 | AUUUUUUUGUCAGGAUAUUAGUGUGCGUUUGGUUUGUUAGUGAUGUUGAUAUUUGGUUUAUGUAUUUAAGAAGGGAUUUAGCGGU [dhbbtemullin] | 557 | 480 | 562 | 582 | 357
